Measurements as given in the DeepSol protein solubility set.

Assay: soluble on expression in E. coli; label from the status in PepcDB or PDB records

Row | Sequence | soluble on expression in E. coli
1 | MCVHTRKPDGLHPKPVSHCPVIDTGQSEWRSFTFTTICMGFRPRQAYRQPSPIANETENTMSNSNIQQEAQDIHDQLPESVDASPEDIEERLTTLVDDYRVPLDEAQRSVVSTYLSDSDVDRDDVSSENENQQVDLEEITEAEQWVDITAKVADLWEPRSDSIAQVGLLGDETGTIKFTKWAKSDLEALTEGQVYRLGNVVTDEYQGQYSVKLNRTTTIEALDQDIEVGDDTTDAEGALVDIQSGSGLIKRCPEDDCTRVLQNGRCSEHGEGEGEFDLRIKGVIDNGDTVQEVIFDKEATEQVADITLAQAQEMAMDALDTSVVADEIREVTLGRYYRVQGPELGRYLLVNEFEQLAEMHDPEQLLITARSI | soluble
2 | MAHHHHHHMKPKMRRESAQPCLTCMPAILNKSVCPIHKIYSDNTLLLFMVIDCYNKMCSKKISTRNANDYKKLWNDNKLLICYSHGVLFHMHTRTSKTCFPQNYFSSNNDNCECGVHQVRFKTLKAQVHIIIPAILTGTTIV | not soluble
3 | MKTGKELKPGTVLRIDNDPWLVQKAEFTKSGRNSAIMKTKLKNLLTGYKTETVYGADDKLDDVILDRKEATLSFINGDEYTFMDTTDYTMYELNAEDIEAVLPYIEEGMEDVCEAVFFEGRLVSVELPTTISRKVVYTENAARGDTSGKVMKPAKLANGTEISVADFIQIDEWIDIDTRDNSFKGRSKKLEHHHHHH | soluble
4 | MSKVVPIASLTPYQSKWTICARVTNKSQIRTWSNSRGEGKLFSLELVDESGEIRATAFNEQVDKFFPLIEVNKVYYFSKGTLKIANKQFTAVKNDYEMTFNNETSVMPCEDDHHLPTVQFDFTGIDDLENKSKDSLVDIIGICKSYEDATKITVRSNNREVAKRNIYLMDTSGKVVTATLWGEDADKFDGSRQPVLAIKGARVSDFGGRSLSVLSSSTIIANPDIPEAYKLRGWFDAEGQALDGVSISDLKS | soluble
5 | QDSTQNLIPAPPLISVPLQPGFWTERFQGRWFVVGLAGNAVQKERQSRFTMYSTIYELQEDNSYNVTSILVRGQGCRYWIRTFVPSSRPGQFTLGNIHSYPQIQSYDVQVADTDYDQFAMVFFQKTSENKQYFKVTLYGRTKGLSDELKERFVSFAKSLGLKDNNIVFSVPTDQCIDN | soluble
6 | MFQDVLVITVAVGRGGDGAVSFRREKFVPKGGPDGGDGGRGGSVYLRARGSVDSLSRLSKRTYKAEDGEHGRGSQQHGRGGEDLVIEVPRGTRVFDADTGELLADLTEEGQTVLVARGGAGGRGNMHFVSPTRQAPRFAEAGEEGEKRRLRLELMLIADVGLVGYPNAGKSSLLAAMTRAHPKIAPYPFTTLSPNLGVVEVSEEERFTLADIPGIIEGASEGKGLGLEFLRHIAGTRVLLYVLDAADDPFKTLKTLRKKVWAYDPGLLGRPSLVALNKVDLLEKEAVKALADALAREGLAVLPVSALTGAGLPALKEALHALVRSTPPPEMPKPVPRKEVQAGVEVVPVAEGVYEVRAPEVERYLARIKGDLMEAAGYLQEVFRRQGVEAALRAKGVRAGDLVRIGGLEFEYIPEV | soluble
7 | MSLIELRDKTILIDGRPRLVLSGEVHYFRLRREDWQDRLDKLKAAGCNTVASYIPWLCHETVEGRIDLDGRSRPELDLGAFIDLCRANGLWFIARPGPFVMAELKNEGLPYWLYEKHPEIVPVGWDGKPATTHTVDYLAPGFLDAARRWYDAVMAVITPRLQPGGGNVIALQLDNEIGMLSWLSNCPDLTENVLADFAAWLKVRHRPESLRKRYPFDPDEPEARRAGIRSPAESYALALLRDLGHYMRDRFARYVATLRSWAETAGIRGIPFVVNIHGTGGGRALSFPIGISQLYPSYTQDFGYLSGSDFYLGNLTFDNFQDLYLCNAFMEAVHRPEQPLASMEFECGDGNYGNTYGNRLDPSAADFKARMCLAQGARLLNYYLFTGGHNYRLDPPPPDGDGRIAFTGERHGFAAPVDPDGRLNYSYPRLANLTRTVAAVADKLAAMWEEHDRVAFGFIPDYFMTESRHPASAAMATIVRNLEANRGPSAWETMARAMLLGGYRFGAVDLQNRPLDVKTTPVLALGSARYMDTAVQRKLADWLSAGGGLLLYGEVPLYGMEGEPCTLLAEALGTEISGFRQASERYFLALAADGWARPRPEVRSHFAQTFAAPLAEALLRVCDTGEICGFETAVGKGRAVVIGTAYPCDIALFRTALERLGAVAALRHDCENHGIFMTSTANAAGERFIHLLNLDGFDKRFHLYEHGRPLFDGHEIELRARDGVMLPLAMREGHHHHHH | not soluble
8 | MKKILLSAAVLLLSLGTYAQNNPTSLPTDIRIKKVVYRENDVIPVHGIPFTTTQIQFAKQERVLDIEGGDTTAWMVTYHPQLENMIFIKPTMFDSKTNMTVITNQRAYYFSLTSAKKLEQEPGKKTYALKFEYPQPQPVNTKNTTPNKTVHPKVVNTAYRFSGSPQLVPRHVFDDGKFTYFELSAQGSVPAIFAVDDQSGKESTVNTRREGKFIVVQRLAPQFTLRQGGLTASVFNTPEINRIRANRRPK | not soluble
9 | MGSDKIHHHHHHMSAEPIIQVENLSKMYRLGLKNEIHDSIAEAAVSWLKTPVKNYRNLKSLNTFGVPVDEDDPGVLWALRDVSFEVAEGEVLGIIGRNGAGKSTLLKVLSRITEPTRGRVIINGRVASLLEVGTGFHPDLTGRENVFMNGSILGMRKGEIAAKFDEIVDFAGLDRFIDTPIKRYSSGMVMRLAFSVAAHLEPEILIIDEVLAVGDAAFQKKCLDKMHKVASGGRTVLFVSHQLNSVSALCGRVMHMDSGRIIKNGDTRQVIDHYLTSAGFGVTTALHDRKDRCGAGHVRFVNSWIEDMQGNRLASAVSGEPVRIALEYQSHAEESFSDVKVYLRLYSMLNKPAGLFSNVYTEERIDISAGENGVLYCTVPRMMLNGGRYFFHLKLEAQGRQLDHIENAGYMEVEAGNVYANGKMPNDQWVYLHDYGWSGEPLHKG | not soluble
10 | MGSDKIHHHHHHMMFLFINISLAQTADTAVKSDELQTTTTSVDEVGVAPADPTPTLSKKELRRQRVAKRNLHYNILGGPSYTPDFGLLIGGSALMTFRMNPSDTTQQRSVVPMAIALMFEGGLNLFTKPQLFFKGDRFRIFGVFAYKNTLENFYGIGYSTNKDYPRGEDTSEYRYSGVQVNPWFLFRLGKSNFFAGPQIDFNYDKITKPAAGMIEQPSYIAAGGTDHGYSNLSSGLGFLLTYDTRDVPANAYRGTYLDFRGMMYNKAFGSDNNFYRLEIDYRQYKTLGKRKVLAWTVQTKNVFGNVPLTKYALSGTPFDLRGYYMGQFRDKSSHVMMAEYRQMINTDKSNWVKKMLNHVGYVAWGGCGFMGPTPGKIEGVLPNLGLGLRIEVQPRMNVRLDFGRDMVNKQNLFYFNMTEAF | not soluble
11 | MGSDKIHHHHHHMNRISVVILNWNGCEMLRSFLPSVLRYSEAEGVEVCVADNGSTDQSVEMLRREFPSVRRILLDGNHGFADGYNLALRQVEAEYVVLLNSDVEVTGQWLQPMAAYLDAHPEVAACQPKIRSWRQKEWFEYAGAAGGFIDRYGYPFCRGRVMGVVEADRGQYDTVLPIFWATGAAMFIRLADYREAGGLDGRFFAHMEEIDLCWRLRARGRGIVCIPQSVVYHVGGATLKKENPHKTFLNFRNNLVMLYKNLPDRELAGVMRVRCWLDYIAAATFALKGQPANAKAVVRARREFKLLRDSFRDARAENLRKTSSHFIPERIKSSILVQFYVKGRKFFSQLSDLKG | not soluble
12 | MVFEEFISTELKKEKKAFTEEFKEEKEINDNSNLKNDLLKEELQEKARIAELESRILKLELEKKELERENLQLMKENEILRRELDRMRVPPLIVGTVVDKVGERKVVVKSSTGPSFLVNVSHFVNPDDLAPGKRVCLNQQTLTVVDVLPENKDYRAKAMEVDERPNVRYEDIGGLEKQMQEIREVVELPLKHPELFEKVGIEPPKGILLYGPPGTGKTLLAKAVATETNATFIRVVGSELVKKFIGEGASLVKDIFKLAKEKAPSIIFIDEIDAIAAKRTDALTGGDREVQRTLMQLLAEMDGFDARGDVKIIGATNRPDILDPAILRPGRFDRIIEVPAPDEKGRLEILKIHTRKMNLAEDVNLEEIAKMTEGCVGAELKAICTEAGMNAIRELRDYVTMDDFRKAVEKIMEKKKVKVKEPAHLDVLYR | soluble
13 | PKYTIVDKETCIACGACGAAAPDIYDYDEDGIAYVTLDDNQGIVEVPDILIDDMMDAFEGCPTDSIKVADEPFDGDPNKFE | soluble
14 | MGSDKIHHHHHHMQCMIDAMRSIVSLISHATVALAGSLAVAGCSLSPQPDHDTAATTPERLEARIHKVHRFDPQAFTQGLELDGDRLLVSTGFYGESGMFSMEVGNAPQQRTPLDPELFGEGITKTGDHIWQLTWRDGIAFKRDATTFQQLGTVSYEGEGWGLCHFDDRVIMSNGSDELIIRDPESFDERSRIRVTNQGNGVSNLNELECVPNDPATGKDTIYANVFLSTDIMRIDATTGAVTGIIDASSIPNNAVADTNNVLNGIAWIPSSDRFYITGKRWPDLYEVTFVSKMSNHGQS | not soluble
15 | MTRYALLVRGINVGGKNKVVMAELRQELTNLGLEKVESYINSGNIFFTSIDSKAQLVEKLETFFAVHYPFIQSFSLLSLEDFEAELENLPAWWSRDLARKDFLFYTEGLDVDQVIATVESLELKDEVLYFGKLGIFWGKFSEESYSKTAYHKYLLKVPFYRHITIRNAKTFDKIGQMLKK | soluble
16 | MGSDKIHHHHHHMATPEFKYQKPFPMGDDTTEYYLLTKEYVSVDKFGDHDVLKVEPEALRLLARTAFHDIAFYLRPEHQQQVARILSDPEASENDKFVALTFLRNAEVSAKGQLPFCQDTGTAIILGKKGQQVWTGGHDEEQLSHGVYDTYTQENLRYSQNAPLDMYKEVNTGCNLPAQIDLMAVDGMEYDFLCIAKGGGSANKTYLYQETKALLNPKTLVNFLVDKMSSLGTAACPPYHIAFVIGGTSAETNLKTVKLASAKYYDNLPTSGNEGGRAFRDVELEKEVLEAAYHLGLGAQFGGKYFAHDVRIIRLPRHGASCPVGMGVSCSADRNIKAKINKDGIWIEKMETNPTRLIPESMREGTEGTVVKVDLNRPMPEILRELSQYPVSTRLSLSGTIIVGRDIAHAKLKERIDRGEGLPDYIKNHPIYYAGPAKTPKGMPSGSFGPTTAGRMDSYVDLFQSHGGSMVMIAKGNRSQQVTDACKKYGGFYLGSVGGPAAILAQDSIKKVECLEYPELGMEAIWKIEVEDFPAFILVDDKGNDFFTQIREKCKGCALH | not soluble
17 | MSLSGYAQTTKSEKIDKKLDSIYLKRENYVVSARDKLTIFIFSTRYLNGKLFTNPGIDNYYFPIAPLNIGLGFSHKWLAVNIAILSPKLGKSNYDNSQSKYQNFNLQALAYTPKYGVDIFYSQNLGYFLGNYNGYIDVANAPDKTPYFDMKTNRFTINLLRVFNPVKYSMNATMIGGEMQKNSSSSFIINTSFSLSKFRMSDSIPAFILDQMNQEAIFKGGTFYSISVLPGYGFTWIFSKRFYLGIIPGFGPSFQYKSMTFEDEHENKVAISYRIIAKAGAGFHAKRWTAGISVLYDNERYHLGSKTNIFNNNGKVILKVGYKINVPNWGKGLSKKMSTMQNKFEHTLHNEGHHHHHH | not soluble
18 | SLHNGGLMAGWHLDTKMAQDIVARTMRIIDTNINVMDARGRIIGSGDRERIGELHEGALLVLSQGRVVDIDDAVARHLHGVRQGINLPLRLEGEIVGVIGLTGEPENLRKYGELVCMTAEMMLEQSRLMHLLAQDSRLREELVMNLIQAEENTPALTEWAQRLGIDLNQPRVVAIVEVDSGQLGVDSAMAELQQLQNALTTPERNNLVAIVSLTEMVVLKPALNSFGRWDAEDHRKRVEQLITRMKEYGQLRFRVSLGNYFTGPGSIARSYRTAKTTMVVGKQRMPESRCYFYQDLMLPVLLDSLRGDWQANELARPLARLKTMDNNGLLRRTLAAWFRHNVQPLATSKALFIHRNTLEYRLNRISELTGLDLGNFDDRLLLYVALQLDEER | soluble
